Assay results taken from publication PMC4927293.

Biological target: heat-aggregated GFP

Substance: Hsp104 D484K (from UniProt P31539 1-908) (enzyme)
- apparent KM for aggregated GFP from initial rates of GFP disaggregation by Hsp104 D484K (0.06 uM, 10 mM ATP): fold gain of affinity with Ssa1 (2 uM) and Ydj1 (0.5 uM): > 25 fold
- apparent KM for aggregated GFP from initial rates of GFP disaggregation by Hsp104 D484K (0.06 uM, 10 mM ATP): fold increase of the apparent KM with 1 mM ADP: 2 fold
